Values belong to the binder of their own block, whether it stands above or below them.
What was measured:
[1] = target: T1, mouse Tie2 Ig3–Fn3 (Mus musculus, UniProt Q02858); assay: BLI; Octet, 30 °C; mouse hTAAB (10 μg/ml) loaded on anti-mouse IgG Fc capture (AMC) biosensors; 1600 nM mouse Tie2 Ig3–Fn3 in kinetics buffer (0.01% BSA, 0.002% Tween-20, 0.005% NaN3 in PBS); 600 s association, 600 s dissociation; conditions: both partners purified
T1 construct: mouse Tie2, Ig3–Fn3, residues 349–737; also called mTie2 Ig3–Fn3; mTie2

[2] = target: T2, human Tie2 extracellular domain (hTie2 ECD) (human, UniProt Q02763); assay: SPR; Biacore T200; hTie2 ECD immobilised on CM5 chip by amine coupling (10 mM acetate pH 5.5); antibodies flowed at 0-64 nM, 300 s association, 300 s dissociation, 30 µl/min; HBS-EP+ buffer; 1:1-binding model, global fit; conditions: both partners purified
T2 construct: human Tie2, extracellular domain, residues 23–735 of human Tie2; Host, tags and purification of the ECD are not described; also called Human Tie2 ECD; source: produced in house

[3] = target: T1, mouse Tie2 Ig3–Fn3; assay: BLI; Octet, 30 °C; humanized IgG1s and mouse Tie2; how the humanized IgG1s were loaded is not told (Supplementary Fig. 5f); conditions: both partners purified
[4] = target: the molecule itself; assay: cross-linking; engineered disulfide bonds (D682C/N691C) across the Fn3–Fn3' interface; SDS-PAGE with Coomassie blue under reducing and non-reducing conditions

T1 sequence (Q02858 349-737): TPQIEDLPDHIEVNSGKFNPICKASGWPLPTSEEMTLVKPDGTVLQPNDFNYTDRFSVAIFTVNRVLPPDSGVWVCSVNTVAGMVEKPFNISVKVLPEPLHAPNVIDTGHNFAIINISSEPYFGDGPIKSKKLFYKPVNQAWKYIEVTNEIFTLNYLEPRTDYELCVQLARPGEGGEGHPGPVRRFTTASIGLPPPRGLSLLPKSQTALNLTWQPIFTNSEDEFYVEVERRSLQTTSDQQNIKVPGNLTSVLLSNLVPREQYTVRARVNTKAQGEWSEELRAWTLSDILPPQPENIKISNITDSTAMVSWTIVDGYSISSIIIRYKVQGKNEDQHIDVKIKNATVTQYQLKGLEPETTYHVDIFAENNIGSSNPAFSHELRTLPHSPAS
T2 sequence (Q02763 23-735): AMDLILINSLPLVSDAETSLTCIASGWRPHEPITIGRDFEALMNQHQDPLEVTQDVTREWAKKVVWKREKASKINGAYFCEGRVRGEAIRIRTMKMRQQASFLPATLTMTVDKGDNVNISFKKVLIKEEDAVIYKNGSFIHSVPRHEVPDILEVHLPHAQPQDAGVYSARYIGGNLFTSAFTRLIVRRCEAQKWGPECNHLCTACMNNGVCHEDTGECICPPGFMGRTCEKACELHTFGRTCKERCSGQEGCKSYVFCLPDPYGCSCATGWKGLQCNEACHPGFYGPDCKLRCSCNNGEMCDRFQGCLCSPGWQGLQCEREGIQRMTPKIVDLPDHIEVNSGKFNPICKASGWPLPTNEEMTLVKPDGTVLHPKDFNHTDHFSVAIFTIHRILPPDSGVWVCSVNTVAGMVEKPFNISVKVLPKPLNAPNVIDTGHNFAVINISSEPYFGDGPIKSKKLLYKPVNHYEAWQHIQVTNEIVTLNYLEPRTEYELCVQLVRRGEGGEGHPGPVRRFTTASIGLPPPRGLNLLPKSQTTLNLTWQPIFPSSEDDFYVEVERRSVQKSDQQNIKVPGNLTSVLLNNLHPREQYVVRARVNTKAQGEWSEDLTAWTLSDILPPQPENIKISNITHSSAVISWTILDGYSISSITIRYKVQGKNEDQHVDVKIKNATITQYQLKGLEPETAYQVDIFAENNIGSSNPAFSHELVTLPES

B1: human Tie2-activating antibody (hTAAB), mouse IgG1 (antibody, V domains shown)
VH: QVQLQQPGAELVRPGASVKLSCKASGYSFTSYWMNWVKQRPGQGLEWIGMIHPSDSETRLNQKFMDKATLTVDKSSSTAYMQLSSPTSEDSAVYYCARGLYGNSWGQGTLVTVSA
VL: DIQMTQSPSSLSASLGERVSLTCRASQDIGISLNWLQQEPDGTIKRLIYATSSLDSGVPKRFSGSRSGSDYSLTISSLESEDFVDYYCLQYASSPYTFGGGTKLEIK
notes: heavy-chain variable region of hTAAB (clone 3H7; closest germline mIGHV1-61*01); mouse IgG1 heavy-chain constant region; light-chain variable region of hTAAB (clone 3H7; closest germline mIGKV9-120*01); mouse kappa light-chain constant region; Mouse IgG1 from the hybridoma; also called 3H7; mouse hTAAB; source: B-cell hybridoma clone 3H7, serum-free culture supernatant, purified (Protein G); …
binding result [1]: no binding (tested: 1600 nM) | Kd [2]: 4.2 nM | koff [2]: 0.0006 s⁻¹ | kon [2]: 140000 M⁻¹ s⁻¹

B2: hzTAAB-H1L1 (antibody, V domains shown)
VH: QVQLVQSGAEVKKPGASVKVSCKASGYSFTSYWMHWVRQAPGQGLEWMGIIHPSDSETRYAQKFQGRVTMTRDTSTSTVYMELSSLRSEDTAVYYCARGLYGNSWGQGTLVTVSS
VL: DIQMTQSPSSLSASVGDRVTITCRASQDIGISLGWYQQKPGKAPKRLIYATSSLQSGVPSRFSGSGSGTEFTLTISSLQPEDFATYYCLQYASSPYTFGQGTKLEIK
binding result [3]: no binding (tested: 1600 nM)

B6: hTie2 Ig3–Fn3 D682C/N691C (domain or fragment, human, UniProt Q02763 349-738, looked up)
chain: TPKIVDLPDHIEVNSGKFNPICKASGWPLPTNEEMTLVKPDGTVLHPKDFNHTDHFSVAIFTIHRILPPDSGVWVCSVNTVAGMVEKPFNISVKVLPKPLNAPNVIDTGHNFAVINISSEPYFGDGPIKSKKLLYKPVNHYEAWQHIQVTNEIVTLNYLEPRTEYELCVQLVRRGEGGEGHPGPVRRFTTASIGLPPPRGLNLLPKSQTTLNLTWQPIFPSSEDDFYVEVERRSVQKSDQQNIKVPGNLTSVLLNNLHPREQYVVRARVNTKAQGEWSEDLTAWTLSDILPPQPENIKISNITHSSAVISWTILDGYSISSITIRYKVQGKNECQHVDVKIKCATITQYQLKGLEPETAYQVDIFAENNIGSSNPAFSHELVTLPESQAP
modifications: two intermolecular disulfide bonds between the introduced cysteines 682 and 691
notes: human Tie2, Ig3–Fn3, residues 349–738, with D682C and N691C; Made by overlap extension PCR from the pFuse-hTie2 Ig3–Fn3–hIgG1–Fc construct; also called constitutive Tie2 Ig3–Fn3 dimer; Tie2 dimeric mutant; source: Expi293F, secreted as Fc fusion, purified as for hTie2 Ig3–Fn3 (MabSelect SuRe, Fc removed by thrombin); not shown: Fc (human IgG1), C-terminal, cleaved
binding result [4]: binds

Second part, the binder after the results:

binding result [3]: no binding (tested: 1600 nM)
B3: hzTAAB-H2L1 (antibody, V domains shown)
VH: QVQLVQSGAEVKKPGASVKVSCKASGYSFTSYWMHWVRQAPGQGLEWMGIIHPSDSETRYAQKFQGRVTMTVDKSTSTVYMELSSLRSEDTAVYYCARGLYGNSWGQGTLVTVSS
VL: DIQMTQSPSSLSASVGDRVTITCRASQDIGISLGWYQQKPGKAPKRLIYATSSLQSGVPSRFSGSGSGTEFTLTISSLQPEDFATYYCLQYASSPYTFGQGTKLEIK

binding result [3]: no binding (tested: 1600 nM)
B4: hzTAAB-H1L2 (antibody, V domains shown)
VH: QVQLVQSGAEVKKPGASVKVSCKASGYSFTSYWMHWVRQAPGQGLEWMGIIHPSDSETRYAQKFQGRVTMTRDTSTSTVYMELSSLRSEDTAVYYCARGLYGNSWGQGTLVTVSS
VL: DIQMTQSPSSLSASVGDRVTITCRASQDIGISLNWLQQKPGKAPKRLIYATSSLDSGVPSRFSGSRSGTEFTLTISSLQPEDFATYYCLQYASSPYTFGQGTKLEIK

binding result [3]: no binding (tested: 1600 nM)
B5: hzTAAB-H2L2 (antibody, V domains shown)
VH: QVQLVQSGAEVKKPGASVKVSCKASGYSFTSYWMHWVRQAPGQGLEWMGIIHPSDSETRYAQKFQGRVTMTVDKSTSTVYMELSSLRSEDTAVYYCARGLYGNSWGQGTLVTVSS
VL: DIQMTQSPSSLSASVGDRVTITCRASQDIGISLNWLQQKPGKAPKRLIYATSSLDSGVPSRFSGSRSGTEFTLTISSLQPEDFATYYCLQYASSPYTFGQGTKLEIK
